Results reported in patent publication EP4541814A1 (Cytiva BioProcess R&D AB, dated 2025).

Target: T1, AAV9 viral particles (adeno-associated virus 9)
Assay: SPR (Biacore), polypeptide amine-coupled to CM5, AAV9 analyte; response normalized to SEQ ID NO:80

Binder | Normalized AAV9 binding capacity (%)
vh257 (SEQ ID NO:101) (VHH) VHH: QVQLQQSGGGSVQAGGSLRLSCTISGRTLSDYTMGWFRQTPGKEREFVAAISWSGAYTKYADSVKGRFTISRDNAKNTVYLQMNSLKPEDTAVYYCAAGPTGLLSKKATPADYDYWGQGTQVTVSS | 69%
vh264 (SEQ ID NO:110) (VHH) VHH: QVQLQQSGGGSVQAGGSLRLSCTISGRTLSDYTMGWFRQRPGKDREFVAAISWSGAYTKYADSVKGRFTISRDNAKNTVYLQMNSLKPEDTAVYYCAAGPTGLLSKKATPADYDYWGQGTQVTVSS | 92%
vh265 (SEQ ID NO:111) (VHH) VHH: QVQLQQSGGGSVQAGGSLRLSCTISGRTLSDYTMGWFRQRPGKGREFVAAISWSGAYTKYADSVKGRFTISRDNAKNTVYLQMNSLKPEDTAVYYCAAGPTGLLSKKATPADYDYWGQGTQVTVSS | 101%
vh259 (SEQ ID NO:105) (VHH) VHH: QVQLQQSGGGSVQAGGSLRLSCTISGRTLSDYTMGWFRQRPGGEREFVAAISWSGAYTKYADSVKGRFTISRDNAKNTVYLQMNSLKPEDTAVYYCAAGPTGLLSKKATPADYDYWGQGTQVTVSS | 72%
vh258 (SEQ ID NO:102) (VHH) VHH: QVQLQQSGGGSVQAGGSLRLSCTISGRTLSDYTMGWFRQIPGKEREFVAAISWSGAYTKYADSVKGRFTISRDNAKNTVYLQMNSLKPEDTAVYYCAAGPTGLLSKKATPADYDYWGQGTQVTVSS | 87%
vh263 (SEQ ID NO:109) (VHH) VHH: QVQLQQSGGGSVQAGGSLRLSCTISGRTLSDYTMGWFRQRPGKAREFVAAISWSGAYTKYADSVKGRFTISRDNAKNTVYLQMNSLKPEDTAVYYCAAGPTGLLSKKATPADYDYWGQGTQVTVSS | 108%
vh260 (SEQ ID NO:106) (VHH) VHH: QVQLQQSGGGSVQAGGSLRLSCTISGRTLSDYTMGWFRQRPGQEREFVAAISWSGAYTKYADSVKGRFTISRDNAKNTVYLQMNSLKPEDTAVYYCAAGPTGLLSKKATPADYDYWGQGTQVTVSS | 77%
vh261 (SEQ ID NO:107) (VHH) VHH: QVQLQQSGGGSVQAGGSLRLSCTISGRTLSDYTMGWFRQRPGREREFVAAISWSGAYTKYADSVKGRFTISRDNAKNTVYLQMNSLKPEDTAVYYCAAGPTGLLSKKATPADYDYWGQGTQVTVSS | 105%
vh262 (SEQ ID NO:108) (VHH) VHH: QVQLQQSGGGSVQAGGSLRLSCTISGRTLSDYTMGWFRQRPGKQREFVAAISWSGAYTKYADSVKGRFTISRDNAKNTVYLQMNSLKPEDTAVYYCAAGPTGLLSKKATPADYDYWGQGTQVTVSS | 104%
vh341 (SEQ ID NO:103) (VHH) VHH: QVQLQQSGGGSVQAGGSLRLSCTISGRTLSDYTMGWFRQKPGKEREFVAAISWSGAYTKYADSVKGRFTISRDNAKNTVYLQMNSLKPEDTAVYYCAAGPTGLLSKKATPADYDYWGQGTQVTVSS | 83%

Target: T1, AAV9 viral particles
Assay: as above
Remark: another data set of the same source

Binder | Normalized AAV9 binding capacity (%)
vh286 (SEQ ID NO:139) (VHH) VHH: QVQLQQSGGGSVQAGGSLRLSCTISGRTLSDYTMGWFRQRPGKEREFVAAISWSGAYTKYADSVKGRFTISRDNAKNTVYLQMNSLKPEDTAIYYCAAGPTGLLSKKATPADYDYWGQGTQVTVSS | 112%
vh330 (SEQ ID NO:132) (VHH) VHH: QVQLQQSGGGSVQAGGSLRLSCTISGRTLSDYTMGWFRQRPGKEREFVAAISWSGAYTKYADSVKGRFTISRDNAKNTVWLQMNSLKPEDTAVYYCAAGPTGLLSKKATPADYDYWGQGTQVTVSS | 112%
Nb277 (SEQ ID NO:129) (VHH) VHH: QVQLQQSGGGSVQAGGSLRLSCTISGRTLSDYTMGWFRQRPGKEREFVAAISWSGAYTKYADSVKGRFTISRDNAKNTVVLQMNSLKPEDTAVYYCAAGPTGLLSKKATPADYDYWGQGTQVTVSS | 80%
vh284 (SEQ ID NO:137) (VHH) VHH: QVQLQQSGGGSVQAGGSLRLSCTISGRTLSDYTMGWFRQRPGKEREFVAAISWSGAYTKYADSVKGRFTISRDNAKNTVYLQMNSLKPEDTAAYYCAAGPTGLLSKKATPADYDYWGQGTQVTVSS | 109%
vh331 (SEQ ID NO:140) (VHH) VHH: QVQLQQSGGGSVQAGGSLRLSCTISGRTLSDYTMGWFRQRPGKEREFVAAISWSGAYTKYADSVKGRFTISRDNAKNTVYLQMNSLKPEDTALYYCAAGPTGLLSKKATPADYDYWGQGTQVTVSS | 109%
Nb329 (SEQ ID NO:127) (VHH) VHH: QVQLQQSGGGSVQAGGSLRLSCTISGRTLSDYTMGWFRQRPGKEREFVAAISWSGAYTKYADSVKGRFTISRDNAKDTVYLQMNSLKPEDTAVYYCAAGPTGLLSKKATPADYDYWGQGTQVTVSS | 111%
Nb276 (SEQ ID NO:128) (VHH) VHH: QVQLQQSGGGSVQAGGSLRLSCTISGRTLSDYTMGWFRQRPGKEREFVAAISWSGAYTKYADSVKGRFTISRDNAKNTVLLQMNSLKPEDTAVYYCAAGPTGLLSKKATPADYDYWGQGTQVTVSS | 92%
vh281 (SEQ ID NO:134) (VHH) VHH: QVQLQQSGGGSVQAGGSLRLSCTISGRTLSDYTMGWFRQRPGKEREFVAAISWSGAYTKYADSVKGRFTISRDNAKNTVYLQMNTLKPEDTAVYYCAAGPTGLLSKKATPADYDYWGQGTQVTVSS | 103%
Nb274 (SEQ ID NO:125) (VHH) VHH: QVQLQQSGGGSVQAGGSLRLSCTISGRTLSDYTMGWFRQRPGKEREFVAAISWSGAYTKYADSVKGRFTISRDNAKETVYLQMNSLKPEDTAVYYCAAGPTGLLSKKATPADYDYWGQGTQVTVSS | 91%
vh280 (SEQ ID NO:133) (VHH) VHH: QVQLQQSGGGSVQAGGSLRLSCTISGRTLSDYTMGWFRQRPGKEREFVAAISWSGAYTKYADSVKGRFTISRDNAKNTVYLQMNNLKPEDTAVYYCAAGPTGLLSKKATPADYDYWGQGTQVTVSS | 100%
Nb273 (SEQ ID NO:124) (VHH) VHH: QVQLQQSGGGSVQAGGSLRLSCTISGRTLSDYTMGWFRQRPGKEREFVAAISWSGAYTKYADSVKGRFTISRDNAKSTVYLQMNSLKPEDTAVYYCAAGPTGLLSKKATPADYDYWGQGTQVTVSS | 82%
vh269 (SEQ ID NO:120) (VHH) VHH: QVQLQQSGGGSVQAGGSLRLSCTISGRTLSDYTMGWFRQRPGKEREFVAAISWSGAYTKYTDSVKGRFTISRDNAKNTVYLQMNSLKPEDTAVYYCAAGPTGLLSKKATPADYDYWGQGTQVTVSS | 85%
vh279 (SEQ ID NO:131) (VHH) VHH: QVQLQQSGGGSVQAGGSLRLSCTISGRTLSDYTMGWFRQRPGKEREFVAAISWSGAYTKYADSVKGRFTISRDNAKNTVFLQMNSLKPEDTAVYYCAAGPTGLLSKKATPADYDYWGQGTQVTVSS | 98%
vh275 (SEQ ID NO:126) (VHH) VHH: QVQLQQSGGGSVQAGGSLRLSCTISGRTLSDYTMGWFRQRPGKEREFVAAISWSGAYTKYADSVKGRFTISRDNAKQTVYLQMNSLKPEDTAVYYCAAGPTGLLSKKATPADYDYWGQGTQVTVSS | 94%
vh327 (SEQ ID NO:118) (VHH) VHH: QVQLQQSGGGSVQAGGSLRLSCTISGRTLSDYTMGWFRQRPGKEREFVAAISWSGAYTKYNDSVKGRFTISRDNAKNTVYLQMNSLKPEDTAVYYCAAGPTGLLSKKATPADYDYWGQGTQVTVSS | 109%
vh271 (SEQ ID NO:122) (VHH) VHH: QVQLQQSGGGSVQAGGSLRLSCTISGRTLSDYTMGWFRQRPGKEREFVAAISWSGAYTKYVDSVKGRFTISRDNAKNTVYLQMNSLKPEDTAVYYCAAGPTGLLSKKATPADYDYWGQGTQVTVSS | 105%
vh328 (SEQ ID NO:119) (VHH) VHH: QVQLQQSGGGSVQAGGSLRLSCTISGRTLSDYTMGWFRQRPGKEREFVAAISWSGAYTKYQDSVKGRFTISRDNAKNTVYLQMNSLKPEDTAVYYCAAGPTGLLSKKATPADYDYWGQGTQVTVSS | 110%
vh270 (SEQ ID NO:121) (VHH) VHH: QVQLQQSGGGSVQAGGSLRLSCTISGRTLSDYTMGWFRQRPGKEREFVAAISWSGAYTKYSDSVKGRFTISRDNAKNTVYLQMNSLKPEDTAVYYCAAGPTGLLSKKATPADYDYWGQGTQVTVSS | 103%
vh278 (SEQ ID NO:130) (VHH) VHH: QVQLQQSGGGSVQAGGSLRLSCTISGRTLSDYTMGWFRQRPGKEREFVAAISWSGAYTKYADSVKGRFTISRDNAKNTVALQMNSLKPEDTAVYYCAAGPTGLLSKKATPADYDYWGQGTQVTVSS | 99%
vh282 (SEQ ID NO:135) (VHH) VHH: QVQLQQSGGGSVQAGGSLRLSCTISGRTLSDYTMGWFRQRPGKEREFVAAISWSGAYTKYADSVKGRFTISRDNAKNTVYLQMNQLKPEDTAVYYCAAGPTGLLSKKATPADYDYWGQGTQVTVSS | 88%
